Test results reported in US20260232826A1 (MABLINK BIOSCIENCE, published 2026).

B1: F-LALA-VA-EXA (antibody, human IgG1, kappa, L234A L235A)
heavy: not shown
light: DIQLTQSPSSLSASVGDRVTITCSVSSSISSNNLHWYQQKPGKAPKPWIYGTSNLASGVPSRFSGSGSGTDYTFTISSLQPEDIATYYCQQWSSYPYMYTFGQGTKVEIKRTVAAPSVFIFPPSDEQLKSGTASVVCLLNNFYPREAKVQWKVDNALQSGNSQESVTEQDSKDSTYSLSSTLTLSKADYEKHKVYACEVTHQGLSSPVTKSFNRGEC
modifications: drug-linker LNK4-S on the interchain cysteine thiol, 1 per light chain (LC-1d); drug-linker LNK4-S (Val-Ala-exatecan with polysarcosine) on interchain cysteine thiols, 3 per heavy chain (HC-3d); DAR …
notes: Antibody-drug conjugate
B2: farletuzumab (antibody, human IgG1, kappa)
heavy: not shown
light: B1 light
notes: Human IgG1, made in CHO K1 cells; also called mAb2; native farletuzumab
B3: F-VA-EXA (antibody, human IgG1, kappa)
heavy chain: not shown
light chain: B1 light
modifications: interchain cysteine thiol conjugated to drug-linker LNK4-S, DAR 8; interchain cysteine thiols conjugated to drug-linker LNK4-S (Val-Ala-exatecan, polysarcosine), DAR 8
B4: farletuzumab-LALA (antibody, human IgG1, kappa, L234A L235A)
heavy: not shown
light: B1 light
notes: also called mAb1; Fc-silent farletuzumab-LALA
B5: mirvetuximab (antibody, human IgG1, kappa, V domains shown)
VH: QVQLVQSGAEVVKPGASVKISCKASGYTFTGYFMNWVKQSPGQSLEWIGRIHPYDGDTFYNQKFQGKATLTVDKSSNTAHMELLSLTSEDFAVYYCTRYDGSRAMDYWGQGTTVTVSS
VL: DIVLTQSPLSLAVSLGQPAIISCKASQSVSFAGTSLMHWYHQKPGQQPRLLIYRASNLEAGVPDRFSGSGSKTDFTLTISPVEAEDAATYYCQQSREYPYTFGGGTKLEIKR
notes: also called native mirvetuximab
B6: M-SORAV (antibody, human IgG1, kappa, V domains shown)
VH: B5 VH
VL: B5 VL
modifications: sulfo-SPDB-DM4 stochastically conjugated to lysines; average DAR 3.35 for the whole antibody
notes: Antibody-drug conjugate; also called ADC derivative of mirvetuximab; mirvetuximab soravtansine comparator

molecular target: T1, recombinant rat FRα protein (Sino Biological cat #81073-R08H) (rat, UniProt G3V8M6 25-232); assay: ELISA: plate coated with recombinant rat FRα (2 µg/mL), threefold dilution series of F-LALA-VA-EXA, goat anti-human IgG-HRP, A450; x axis printed as [Recombinant FRa] (M) with log10 values
T1 construct: Bought; also called rat recombinant FRα protein
T1 sequence (G3V8M6 entry or part of it R08H R08H limits assumed): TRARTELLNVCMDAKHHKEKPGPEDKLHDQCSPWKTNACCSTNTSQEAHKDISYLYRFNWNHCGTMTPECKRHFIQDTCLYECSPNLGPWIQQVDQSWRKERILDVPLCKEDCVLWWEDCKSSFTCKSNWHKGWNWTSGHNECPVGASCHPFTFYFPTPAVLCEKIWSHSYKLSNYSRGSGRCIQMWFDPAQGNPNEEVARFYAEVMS
Description: (§1) Sandwich ELISA assays were performed using 96-well high-binding ELISA plates (Corning Inc., New York, NY, USA, Cat #3590). Plates were coated using 100 μL/well of recombinant human FRα protein (Sino Biological cat #11241-H08H); recombinant cynomolgus FRα protein (Sino Biological cat #90950-C08H); recombinant rat FRα protein (Sino Biological cat #81073-R08H) or recombinant mouse FRα protein (Sino Biological cat #50573-M08H) in PBS (pH 7.4) at 2 μg/mL and incubated overnight at 4° C. After 2 washes with PBS-T (PBS+0.05% Tween-20), the plates were blocked with 200 μL/well of incubation buffer (PBS-T+0.1% BSA) for 1 h at room temperature. The plates were washed 4 times with PBS-T, and 100 μL of a threefold dilution series of tested compound (antibody or antibody-drug conjugate) was added. Then, the plates were incubated for 2 h at room temperature in the dark. After 5 washes with PBS-T, plates were incubated 1 h at room temperature with 100 μL/well of a goat anti-human IgG (H+L) HRP conjugated antibody (Jackson Immunoresearch cat #109-035-088), previously diluted 1:250000 in incubation buffer. After 5 washes with PBS-T, TMB substrate solution (Thermo-Fisher cat #N301) was added. […] Sigmoidal fittings were performed using GraphPad Prism 9 software.

| binding result | Binder |
| --- | --- |
| no binding | B1 |

molecular target: T2, recombinant mouse FRα protein (Sino Biological cat #50573-M08H) (mouse, UniProt P35846 25-232); assay: ELISA: plate coated with recombinant mouse FRα (2 µg/mL), threefold dilution series of F-LALA-VA-EXA, goat anti-human IgG-HRP, A450; x axis printed as [Recombinant FRa] (M) with log10 values
T2 construct: Bought; also called mouse recombinant FRα protein
T2 sequence (P35846 25-232 limits assumed, stated change not applied): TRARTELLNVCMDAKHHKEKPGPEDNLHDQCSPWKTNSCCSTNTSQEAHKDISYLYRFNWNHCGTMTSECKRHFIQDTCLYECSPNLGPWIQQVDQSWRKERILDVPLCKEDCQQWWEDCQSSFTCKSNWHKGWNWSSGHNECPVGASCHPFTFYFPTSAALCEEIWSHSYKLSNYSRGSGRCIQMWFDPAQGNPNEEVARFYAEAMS
Description: as §1

| binding result | Binder |
| --- | --- |
| no binding | B1 |

molecular target: T3, recombinant human FRα protein (Sino Biological cat #11241-H08H) (human, UniProt P15328 25-233); assay: SPR, Biacore T200, 25 °C: antibody or ADC captured with Human Antibody Capture kit on CM5 chip, recombinant human FRα as analyte (0.5-8 nM), single cycle kinetics, 1:1 model, mean over replicates
T3 construct: Bought recombinant protein; also called human folate receptor alpha; FOLR1
T3 sequence (P15328 25-233 limits assumed): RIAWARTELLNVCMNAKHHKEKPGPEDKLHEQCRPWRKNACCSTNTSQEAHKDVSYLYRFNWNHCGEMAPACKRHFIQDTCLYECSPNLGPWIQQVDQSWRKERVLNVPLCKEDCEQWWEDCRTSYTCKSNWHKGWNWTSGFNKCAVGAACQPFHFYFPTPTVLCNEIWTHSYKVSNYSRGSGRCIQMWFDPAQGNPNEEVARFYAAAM
Description: (§2) Surface plasmon resonance (SPR) experiments are performed on a Biacore T200 apparatus, at 25° C. Tested antibody or ADC are captured at low density (300-500 RU) on a CM5 series S sensorchip, beforehand functionalized with a Human Antibody Capture kit (Cytiva cat #BR100839). A functionalized surface/flow cell treated similarly but omitting ligand is used as reference. […] The dissociation phase is measured by injection of running buffer for 900 sec. Between duplicates, surfaces/flow cells are regenerated with 3M MgCl₂ to remove both analyte and ligand, and fresh ligand capture are done using identical conditions. The data analysis is performed using the Biacore Evaluation software after subtraction of reference surface and analyte zero-concentration signals. Data are processed and fit to a 1:1 binding model to determine the binding kinetic rate constants, kₐ (on-rate) and kd (off-rate), and the KD (equilibrium dissociation constant, also referred to as “affinity”). Mean values and standard deviations over replicates are reported.
(§3) Surface plasmon resonance (SPR) experiments were performed on a Biacore T200 apparatus, at 25° C. Tested antibody or ADC were captured at low density (300-500 RU) on a CM5 series S sensorchip, beforehand functionalized with a Human Antibody Capture kit (Cytiva cat #BR100839). A functionalized surface/flow cell treated similarly but omitting ligand was used as reference. […] The dissociation phase was measured by injection of running buffer for 900 sec. Between duplicates, surfaces/flow cells were regenerated with 3M MgCl₂ to remove both analyte and ligand, and fresh ligand capture were done using identical conditions.

| koff [s⁻¹] | kon [M⁻¹ s⁻¹] | Binder |
| --- | --- | --- |
| 0.0361 | 1.9e+06 | B2 |
| 0.0306 | 1e+06 | B3 |
| 0.0321 | 1.34e+06 | B4 |
| 0.0368 | 1.33e+06 | B1 |
| 0.000244 | 1.15e+06 | B5 |
| 0.000327 | 1.26e+06 | B6 |

molecular target: T3, recombinant human FRα protein (Sino …); assay: ELISA: plate coated with recombinant human FRα (2 µg/mL), threefold dilution series of the antibody or ADC, goat anti-human IgG-HRP, normalized A450; x axis printed as [Recombinant FRa] (M) with log10 values
Description: (§4) Sandwich ELISA assays are performed using 96-well high-binding ELISA plates (Corning Inc., New York, NY, USA, Cat #3590). Plates are coated using 100 µL/well of recombinant human FRα protein (Sino Biological cat #11241-H08H) in PBS (pH 7.4) at 2 μg/mL and incubated overnight at 4° C. After 2 washes with PBS-T (PBS+0.05% Tween-20), the plates are blocked with 200 μL/well of incubation buffer (PBS-T+0.1% BSA) for 1 h at room temperature. The plates are washed 4 times with PBS-T, and 100 μL of a threefold dilution series of tested compound (antibody or antibody-drug conjugate) is added. Then, the plates are incubated for 2 h at room temperature in the dark. After 5 washes with PBS-T, plates are incubated 1 h at room temperature with 100 μL/well of a goat anti-human IgG (H+L) HRP conjugated antibody (Jackson Immunoresearch cat #109-035-088), previously diluted 1:250000 in incubation buffer. After 5 washes with PBS-T, TMB substrate solution (Thermo-Fisher cat #N301) is added. […] Sigmoidal fittings were performed using GraphPad Prism 9 software.
Sandwich ELISA assays were performed using 96-well high-binding ELISA plates (Corning Inc., New York, NY, USA, Cat #3590). Plates were coated using 100 μL/well of recombinant human FRα protein (Sino Biological cat #11241-H08H); recombinant cynomolgus FRα protein (Sino Biological cat #90950-C08H); recombinant rat FRα protein (Sino Biological cat #81073-R08H) or recombinant mouse FRα protein (Sino Biological cat #50573-M08H) in PBS (pH 7.4) at 2 μg/mL and incubated overnight at 4° C. After 2 washes with PBS-T (PBS+0.05% Tween-20), the plates were blocked with 200 μL/well of incubation buffer (PBS-T+0.1% BSA) for 1 h at room temperature. The plates were washed 4 times with PBS-T, and 100 μL of a threefold dilution series of tested compound (antibody or antibody-drug conjugate) was added. Then, the plates were incubated for 2 h at room temperature in the dark. After 5 washes with PBS-T, plates were incubated 1 h at room temperature with 100 μL/well of a goat anti-human IgG (H+L) HRP conjugated antibody (Jackson Immunoresearch cat #109-035-088), previously diluted 1:250000 in incubation buffer.

| EC50 (read off the curve) [nM] | Binder |
| --- | --- |
| ~0.1 | B2 |
| ~0.1 | B3 |
| ~0.1 | B4 |
| ~0.1 | B1 |
| ~0.2 | B5 |
| ~0.3 | B6 |

molecular target: T3, recombinant human FRα protein (Sino …); assay: SPR, Biacore T200, 25 °C: antibody or ADC captured with Human Antibody Capture kit on CM5 chip, recombinant human FRα as analyte (0.5-8 nM), single cycle kinetics, 1:1 model, KD calculated as kd/ka
Description: as §2, §3

| Kd [nM] | Binder |
| --- | --- |
| 25.1 | B2 |
| 30.9 | B3 |
| 25.5 | B4 |
| 27.8 | B1 |
| 0.211 | B5 |
| 0.26 | B6 |

molecular target: T3, recombinant human FRα protein (Sino …); assay: SPR Biacore T200, antibody captured, recombinant human FRα as analyte, 1:1 model; the filing attributes it to an increased kd with a similar ka
Description: as §2
Surface plasmon resonance (SPR) experiments were performed on a Biacore T200 apparatus, at 25° C. Tested antibody or ADC were captured at low density (300-500 RU) on a CM5 series S sensorchip, beforehand functionalized with a Human Antibody Capture kit (Cytiva cat #BR100839). […] The dissociation phase was measured by injection of running buffer for 900 sec. […]

| fold change of KD against mirvetuximab and mirvetuximab-based constructs [fold] | Binder |
| --- | --- |
| ~10 | B2 |
| ~10 | B4 |

molecular target: T4, recombinant cynomolgus FRα protein (Sino Biological cat #90950-C08H) (cynomolgus, UniProt A0A2K5U044 25-234); assay: ELISA: plate coated with recombinant cynomolgus FRα (2 µg/mL), threefold dilution series of F-LALA-VA-EXA, goat anti-human IgG-HRP, A450; x axis printed as [Recombinant FRa] (M) with log10 values
T4 construct: Bought; also called cynomolgus recombinant FRα protein
T4 sequence (A0A2K5U044 entry or part of it C08H C08H): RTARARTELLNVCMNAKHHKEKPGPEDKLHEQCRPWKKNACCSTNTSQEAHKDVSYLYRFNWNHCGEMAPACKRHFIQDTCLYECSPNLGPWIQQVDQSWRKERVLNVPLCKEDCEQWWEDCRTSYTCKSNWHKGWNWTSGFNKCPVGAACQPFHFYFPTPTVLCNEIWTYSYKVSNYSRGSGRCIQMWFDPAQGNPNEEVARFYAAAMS
Description: as §1

| EC50 (read off the curve) [nM] | Binder |
| --- | --- |
| ~0.1 | B1 |

molecular target: T3, recombinant human FRα protein (Sino …); assay: ELISA: plate coated with recombinant human FRα (2 µg/mL), threefold dilution series of F-LALA-VA-EXA, goat anti-human IgG-HRP, A450; x axis printed as [Recombinant FRa] (M) with log10 values
Description: as §4
Sandwich ELISA assays were performed using 96-well high-binding ELISA plates (Corning Inc., New York, NY, USA, Cat #3590). […]

| EC50 (read off the curve) [nM] | Binder |
| --- | --- |
| ~0.1 | B1 |
